Measured values from patent US20240317847A1 (Bayer, published 2024).
Residue numbers refer to the chain shown, from its start. Each block holds one binder with its values, some of them ahead of it.

Legend:
human IL2Ra = molecular target: T1, human IL2Ra (human, UniProt P01589 22-240, limits assumed); experiment: IL2Ra direct binding ELISA, signal ratio to isotype control
T1 construct: bought protein, coated on the plate; also called hIL2RA; IL-2 receptor alpha
T1 sequence (looked up): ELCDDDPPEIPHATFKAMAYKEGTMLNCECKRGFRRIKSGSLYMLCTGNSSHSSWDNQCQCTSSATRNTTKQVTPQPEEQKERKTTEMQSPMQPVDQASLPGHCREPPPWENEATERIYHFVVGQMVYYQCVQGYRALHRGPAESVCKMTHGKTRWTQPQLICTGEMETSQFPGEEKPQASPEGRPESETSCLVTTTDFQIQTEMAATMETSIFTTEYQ
Method: IL2RA (Peprotech, Germany, #200-02RC) was coated at 1 or 0 μg/ml (buffer only control) in 30 μl coating buffer (Candor, #113500) per well on a 384 well microtiter plate (Maxisorb, Nunc, #460518) over night at 4-8° C. After two washes with 50 μl/well washing buffer (PBS+0.05% Tween, pH 7.4), the plates were incubated for two hours at room temperature with 50 μl/well SmartBlock (Candor, #113500). After blocking, the plates were washed three times with washing buffer. Then, a dilution series of the respective antibody (1E-7 [M] down to 2E-13 [M]) in PBS+0.05% Tween, 10% SmartBlock were added in 30 μl to the microtiter plate and incubated for 90 min at room temperature. After three additional washes, 30 μl anti mouse IgG HRP-conjugated antibody (Biotechne, HAF007), diluted 1:1000 in PBS+0.05% Tween (pH 7.4), were added per well and incubated for one hour. After three additional washes, a mixture of Amplex red (Invitrogen, #12222, 10 mM stock solution in DMSO) 1:1000 diluted in PBS and H2O2 (30%, Merck, #107209)) diluted 1:10000 in PBS were added as substrate with 30 μl per well and incubated for 20 min in the dark. Relative fluorescence was measured with a microtiter plate reader at 535/590 nm.
Next, the 42 antibodies were subjected to an IL2Ra binding ELISA as described in Example 20.

human IL-11 = molecular target: T2, human IL-11 (human, UniProt P20809 22-199); experiment: cell-based or functional assay
T2 sequence: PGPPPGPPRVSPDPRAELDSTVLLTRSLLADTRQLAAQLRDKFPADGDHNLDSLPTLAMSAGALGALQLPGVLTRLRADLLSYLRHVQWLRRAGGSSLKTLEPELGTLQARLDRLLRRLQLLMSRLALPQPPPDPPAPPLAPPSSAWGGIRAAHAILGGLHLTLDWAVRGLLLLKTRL

murine IL-11 = molecular target: T3, murine IL-11 (mouse, UniProt P47873 22-199); experiment: cell-based or functional assay
T3 sequence: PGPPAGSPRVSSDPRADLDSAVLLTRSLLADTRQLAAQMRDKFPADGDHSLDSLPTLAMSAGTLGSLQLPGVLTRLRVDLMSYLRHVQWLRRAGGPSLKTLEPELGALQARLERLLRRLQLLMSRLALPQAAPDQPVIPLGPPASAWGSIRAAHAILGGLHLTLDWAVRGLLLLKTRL

hIL2RA ELISA Binding: Ratio to Isotpye (human IL2Ra): 334 ratio
RGA Efficacy (%) (human IL-11): 68.9%
RGA IC50 (human IL-11): 4.1 nM
RGA Efficacy (%) (murine IL-11): 92.1%
RGA IC50 (murine IL-11): 1.6 nM
B1: TPP-26291 (antibody, V domains shown)
VH: EVQLLESGGGLVQPGGSLRLSCAASGFTFSSYGMHWVRQAPGKGLEWVSVISYDGSYKYYADSVKGRFTISRDNSKNTLYLQMNSLRAEDTAVYYCAAGVPDYWGQGTLVTVSS
VL: QSVLTQPPSASGTPGQRVTISCTGSSSNIGAGYDVHWYQQLPGTAPKLLIYSNNERPSGVPDRFSGSKSGTSASLAISGLRSEDEADYYCAAWDPSLNGPVFGGGTKLTVL

hIL2RA ELISA Binding: Ratio to Isotpye (human IL2Ra): 474 ratio
RGA Efficacy (%) (human IL-11): 62.9%
RGA IC50 (human IL-11): 4.1 nM
RGA Efficacy (%) (murine IL-11): 96.3%
RGA IC50 (murine IL-11): 1.5 nM
B2: TPP-26298 (antibody, V domains shown)
VH: B1 VH
VL: B1 VL with T23L, P95D

hIL2RA ELISA Binding: Ratio to Isotpye (human IL2Ra): 232 ratio
RGA Efficacy (%) (human IL-11): 70%
RGA IC50 (human IL-11): 2.2 nM
RGA Efficacy (%) (murine IL-11): 96.4%
RGA IC50 (murine IL-11): 1.5 nM
B3: TPP-26306 (antibody, V domains shown)
VH: B1 VH
VL: B1 VL with P95Q

hIL2RA ELISA Binding: Ratio to Isotpye (human IL2Ra): 31 ratio
RGA Efficacy (%) (human IL-11): 69.9%
RGA IC50 (human IL-11): 0.99 nM
RGA Efficacy (%) (murine IL-11): 93.2%
RGA IC50 (murine IL-11): 1.2 nM
B4: TPP-26317 (antibody, V domains shown)
VH: B1 VH
VL: B1 VL with G32E, P95D

hIL2RA ELISA Binding: Ratio to Isotpye (human IL2Ra): 379 ratio
RGA Efficacy (%) (human IL-11): 71%
RGA IC50 (human IL-11): 20 nM
RGA Efficacy (%) (murine IL-11): 93.1%
RGA IC50 (murine IL-11): 2.9 nM
B5: TPP-26296 (antibody, V domains shown)
VH: B1 VH
VL: B1 VL with P95N

hIL2RA ELISA Binding: Ratio to Isotpye (human IL2Ra): 183 ratio
RGA Efficacy (%) (human IL-11): 57.1%
RGA IC50 (human IL-11): 3.7 nM
RGA Efficacy (%) (murine IL-11): 93.5%
RGA IC50 (murine IL-11): 1.8 nM
B6: TPP-26297 (antibody, V domains shown)
VH: B1 VH
VL: B1 VL with D94Q, P95D

hIL2RA ELISA Binding: Ratio to Isotpye (human IL2Ra): 231 ratio
RGA Efficacy (%) (human IL-11): 59.5%
RGA IC50 (human IL-11): 4.5 nM
RGA Efficacy (%) (murine IL-11): 94.3%
RGA IC50 (murine IL-11): 1.1 nM
B7: TPP-26310 (antibody, V domains shown)
VH: B1 VH
VL: B1 VL with S58W, P95D

hIL2RA ELISA Binding: Ratio to Isotpye (human IL2Ra): 188 ratio
RGA Efficacy (%) (human IL-11): 63.6%
RGA IC50 (human IL-11): 5.9 nM
RGA Efficacy (%) (murine IL-11): 91.6%
RGA IC50 (murine IL-11): 1.3 nM
B8: TPP-26308 (antibody, V domains shown)
VH: B1 VH
VL: B1 VL with P95V

hIL2RA ELISA Binding: Ratio to Isotpye (human IL2Ra): 385 ratio
RGA Efficacy (%) (human IL-11): 69.2%
RGA IC50 (human IL-11): 13 nM
RGA Efficacy (%) (murine IL-11): 93.9%
RGA IC50 (murine IL-11): 2.1 nM
B9: TPP-26295 (antibody, V domains shown)
VH: B1 VH
VL: B1 VL with P95H

hIL2RA ELISA Binding: Ratio to Isotpye (human IL2Ra): 481 ratio
RGA Efficacy (%) (human IL-11): 70.2%
RGA IC50 (human IL-11): 22 nM
RGA Efficacy (%) (murine IL-11): 95.7%
RGA IC50 (murine IL-11): 2.3 nM
B10: TPP-26303 (antibody, V domains shown)
VH: B1 VH
VL: B1 VL with S58E, P95D

hIL2RA ELISA Binding: Ratio to Isotpye (human IL2Ra): 96 ratio
RGA Efficacy (%) (human IL-11): 70.1%
RGA IC50 (human IL-11): 3.1 nM
RGA Efficacy (%) (murine IL-11): 96.9%
RGA IC50 (murine IL-11): 0.94 nM
B11: TPP-26299 (antibody, V domains shown)
VH: B1 VH
VL: B1 VL with P95D, N98Y

hIL2RA ELISA Binding: Ratio to Isotpye (human IL2Ra): 205 ratio
RGA Efficacy (%) (human IL-11): 68.3%
RGA IC50 (human IL-11): 1.7 nM
RGA Efficacy (%) (murine IL-11): 91.5%
RGA IC50 (murine IL-11): 1.5 nM
B12: TPP-26315 (antibody, V domains shown)
VH: B1 VH
VL: B1 VL with G32H, P95D

hIL2RA ELISA Binding: Ratio to Isotpye (human IL2Ra): 384 ratio
RGA Efficacy (%) (human IL-11): 73.7%
RGA IC50 (human IL-11): 2.8 nM
RGA Efficacy (%) (murine IL-11): 96.9%
RGA IC50 (murine IL-11): 0.95 nM
B13: TPP-26293 (antibody, V domains shown)
VH: B1 VH
VL: B1 VL with G32W, P95D

hIL2RA ELISA Binding: Ratio to Isotpye (human IL2Ra): 436 ratio
RGA Efficacy (%) (human IL-11): 70.4%
RGA IC50 (human IL-11): 5.9 nM
RGA Efficacy (%) (murine IL-11): 95.2%
RGA IC50 (murine IL-11): 1.2 nM
B14: TPP-26304 (antibody, V domains shown)
VH: B1 VH
VL: B1 VL with G30W, P95D

hIL2RA ELISA Binding: Ratio to Isotpye (human IL2Ra): 557 ratio
RGA Efficacy (%) (human IL-11): 74%
RGA IC50 (human IL-11): 5.6 nM
RGA Efficacy (%) (murine IL-11): 94.7%
RGA IC50 (murine IL-11): 0.94 nM
B15: TPP-26292 (antibody, V domains shown)
VH: B1 VH
VL: B1 VL with P95E

hIL2RA ELISA Binding: Ratio to Isotpye (human IL2Ra): 221 ratio
RGA Efficacy (%) (human IL-11): 69.4%
RGA IC50 (human IL-11): 1.6 nM
RGA Efficacy (%) (murine IL-11): 90.4%
RGA IC50 (murine IL-11): 1 nM
B16: TPP-26316 (antibody, V domains shown)
VH: B1 VH
VL: B1 VL with P95M

hIL2RA ELISA Binding: Ratio to Isotpye (human IL2Ra): 292 ratio
RGA Efficacy (%) (human IL-11): 38.1%
RGA IC50 (human IL-11): 1.9 nM
RGA Efficacy (%) (murine IL-11): 86.2%
RGA IC50 (murine IL-11): 2.2 nM
B17: TPP-26311 (antibody, V domains shown)
VH: B1 VH
VL: B1 VL with V35H, P95D

hIL2RA ELISA Binding: Ratio to Isotpye (human IL2Ra): 447 ratio
RGA Efficacy (%) (human IL-11): 75.5%
RGA IC50 (human IL-11): 3.3 nM
RGA Efficacy (%) (murine IL-11): 94.9%
RGA IC50 (murine IL-11): 1.1 nM
B18: TPP-26300 (antibody, V domains shown)
VH: B1 VH
VL: B1 VL with P95S

hIL2RA ELISA Binding: Ratio to Isotpye (human IL2Ra): 455 ratio
RGA Efficacy (%) (human IL-11): 69.3%
RGA IC50 (human IL-11): 1.1 nM
RGA Efficacy (%) (murine IL-11): 94.4%
RGA IC50 (murine IL-11): 0.8 nM
B19: TPP-26314 (antibody, V domains shown)
VH: B1 VH
VL: B1 VL with P95W

hIL2RA ELISA Binding: Ratio to Isotpye (human IL2Ra): 176 ratio
RGA Efficacy (%) (human IL-11): 52.7%
RGA IC50 (human IL-11): 5.3 nM
RGA Efficacy (%) (murine IL-11): 92.3%
RGA IC50 (murine IL-11): 1.9 nM
B20: TPP-26307 (antibody, V domains shown)
VH: B1 VH
VL: B1 VL with P95I

hIL2RA ELISA Binding: Ratio to Isotpye (human IL2Ra): 195 ratio
RGA Efficacy (%) (human IL-11): 76.1%
RGA IC50 (human IL-11): 1.7 nM
RGA Efficacy (%) (murine IL-11): 96.2%
RGA IC50 (murine IL-11): 0.66 nM
B21: TPP-26313 (antibody, V domains shown)
VH: B1 VH
VL: B1 VL with G32Y, P95D

hIL2RA ELISA Binding: Ratio to Isotpye (human IL2Ra): 234 ratio
RGA Efficacy (%) (human IL-11): 63.9%
RGA IC50 (human IL-11): 1.5 nM
RGA Efficacy (%) (murine IL-11): 92.2%
RGA IC50 (murine IL-11): 0.94 nM
B22: TPP-26309 (antibody, V domains shown)
VH: B1 VH
VL: B1 VL with P95F

hIL2RA ELISA Binding: Ratio to Isotpye (human IL2Ra): 275 ratio
RGA Efficacy (%) (human IL-11): 69.4%
RGA IC50 (human IL-11): 9.8 nM
RGA Efficacy (%) (murine IL-11): 97.9%
RGA IC50 (murine IL-11): 1.5 nM
B23: TPP-26294 (antibody, V domains shown)
VH: B1 VH
VL: B1 VL with G32A, P95D

hIL2RA ELISA Binding: Ratio to Isotpye (human IL2Ra): 522 ratio
RGA Efficacy (%) (human IL-11): 65.8%
RGA IC50 (human IL-11): 22 nM
RGA Efficacy (%) (murine IL-11): 94.3%
RGA IC50 (murine IL-11): 1.1 nM
B24: TPP-26302 (antibody, V domains shown)
VH: B1 VH
VL: B1 VL with A91S, P95D
